Test results published in publication PMC3863775.
Like-named read-outs stand apart in the source and are kept apart here.

Columns and labels:
Test in all cases: cryo-EM structure; single-particle cryoEM of the icosahedral head of purified BPP-1 virions, frozen hydrated; 50 mM Tris-HCl, 250 mM NaCl, 1 mM MgCl2, pH7.5; ~3.5 Å (capsid), ~3.4 Å (averaged CP and MCP)
[1] = molecular target: cement protein (CP) Bbp16 of bacteriophage BPP-1 (Bordetella bacteriophage BPP-1)
[2] = molecular target: major capsid protein (MCP) Bbp17 of bacteriophage BPP-1 (Bordetella bacteriophage BPP-1)
[3] = molecular target: major capsid protein (MCP) Bbp17 of bacteriophage BPP-1 (Bordetella bacteriophage BPP-1); remark: listed apart in the source

Substance	stoichiometry N [1]	stoichiometry N [2]	stoichiometry N [3]
cement protein (CP) Bbp16 of bacteriophage BPP-1 (natural protein)	2	–	–
major capsid protein (MCP) Bbp17 of bacteriophage BPP-1 (natural protein)	–	6	5
